Results published in US20200299738.

Experiments:
[1] = target: T1, E. rectale acyl carrier protein (T protein; gene ereT)
T1 chain: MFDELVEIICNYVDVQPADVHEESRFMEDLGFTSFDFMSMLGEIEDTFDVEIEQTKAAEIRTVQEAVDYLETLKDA

[2] = target: T2, C. eutactus acyl carrier protein (T protein; gene ceuT)
T2 chain: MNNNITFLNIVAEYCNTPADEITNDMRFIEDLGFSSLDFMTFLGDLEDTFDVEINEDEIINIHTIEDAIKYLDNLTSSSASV

B1: C. eutactus condensation domain protein (fatty acyl-transferase, C protein; gene ceuC) (protein)
chain: MPRKYYPLTPSQKIHFKPIIEFGTQQVANISICMTLQAPLDFGLLKKCIQLEYERYECLRIRFTKVDQNGEVRQYVVSRDDRDIDYENLSWLSGDDAYHRMEEWSRIPFDGDNIPMNVIKMISLPGGYNGLYIKIDHRLMDSCGAIVMVNDIMELYCHYKFGTPYPEDMASFTDMVERDLKKSTDEKRVSKDRMYWQNVLEENGEPIYSDIQGQRILQESRRLHNDKSLRAADQEINDLSVATKNYHLDAEPTQNLLDFCMNNHISMTNLILMGIRTYLSKANGGQTDISIRNYVSRRSTHAEWVSGGSRAMAYPCRTIIDPDTEFLDAVFMIQDVQNHVYRHCNYDPELLSDQMKEMFHTPPHTTYESVGLTYQPLPIRLKNPHLENISVRSMWIPNGTSKQKIYLTVMHSANDLGLNFYFRYQTASLSEQDIELFYYYLMKIIFKGIAEPEMTVGEIIECI
condensation activity (enzyme-catalysed FAA product formation) after swapping the T protein between the C. eutactus and E. rectale pathways [1]: While the C protein lost activity, the A protein retained activity after swapping the T protein | enzymatic production of hybrid FAA with the T and C protein pair from the same pathway and a swapped A protein [2]: Swapping the A domain, while retaining the T and C protein pair from the same pathway, permitted the enzymatic production of hybrid FAA that incorporated the substrates from two different pathways

B2: E. rectale condensation domain protein (fatty acyl-transferase, C protein; gene ereC) (protein)
chain: MKTRKGHNVYPITVAQKFHLYYAKYCPNMAVLNIGTSLTIGTELDWNVLRDSINYAYARNEAMRIRFTRDKDGECYQYIADVDEDFKERTVDFKDFTDVTMEEAENEMQGWTQVPFEFEDSPMTKIVMIKMPDGFNGVYFLGHHMVVDAQSLIAFLKDIIEIYCNAMYEGVPFPKDMCSYIEQLKKDLAYEAGSKAQLRDREFFEKLIRQSEPIYNGIDGTAKLDAARELMHDNKLRSAFNASDDVTSALDIFHLEAEPTKRLMDFCEKYHISLACLLLMGIRTFFQKENGFDDVSVNNAIARRATLKEKKSGGTRIHSFPFRTCFSKDVRFIDAVYTIRDKQNELFRHANYNPTEYFALRSKTYPQPKAGLTYEPMSLTYQPMTLKEKGLNDLGDIKYKTKWYPNGMTTQAMYLTVMHRPEDNGLDFSFEHQVKAVSRKQLEYMYYYLCKIMFKGAENPELTIGEIIKLV
enzymatic production of hybrid FAA with the T and C protein pair from the same pathway and a swapped A protein [1]: Swapping the A domain, while retaining the T and C protein pair from the same pathway, permitted the enzymatic production of hybrid FAA that incorporated the substrates from two different pathways | condensation activity (enzyme-catalysed FAA product formation) after swapping the T protein between the C. eutactus and E. rectale pathways [2]: While the C protein lost activity, the A protein retained activity after swapping the T protein

B3: C. eutactus fatty acyl-ACP synthetase (A protein; gene ceuA) (protein)
chain: MEENILEIVEKSCRIHRDVIAVKYLSHREIVEKSYGDMWDDIRKTAVILRNNGLCGTHIALVGSSSYEWICAYMAILFTGNTAVPLDANLSVSELHELLNRSGSIALFCGASRKDVITELTDDCPEMNIVFTMEKKVDIEHLEGADSNPQLAILSFEQLRNEITIPDDFAFADQDKDKMCTLMYTSGTTGKSKGVMLSQFNLAQNVENVYVNLEPGVTILSVLPIHHAFCLTMEWMKGISLGATICINDSLLHMLKNMKRFQPVGMLMVPLMVETIYKKLKDVNPLLPKKLVAKEAFGGKLEYIFCGGAYLDPMYVTEFKKYGIDILQGYGMTECSPVICSNNHRYNRPGSVGKLLDNCAVRFVDEEIQVKGTSVMSGYYDMPNETAEAFQDGWLCTGDLGYLDSDGFMYITGRKKNLIILANGENISPEELEGKLSIEPLISEIVITGDGNHLTAHIYPDQDFVDKKHMDAARTSEKLQKIIDTFNKNQPTYKRISALDIRKEPFEKSSTKKIKRNLV
adenylation activity after swapping the T protein between the C. eutactus and E. rectale pathways [1]: While the C protein lost activity, the A protein retained activity after swapping the T protein

B4: E. rectale fatty acyl-ACP synthetase (A protein; gene ereA) (protein)
chain: MLFHTIPDILSYANEAYGADDAIRWKKSKNEIESRTYSELKNDTDSFANAIEKLGKKGQHIAVIGPSSYEWIVSYLAITESGSVAVPIDASLPAADICELLDRASVRMLIFDEARSDVAEAAAKSCHDINVYVSMNSTEHCPQVLSFKGLIDDNRGSYEPAVAEDALCTIMFTSGTTGKSKGVMLTQNNLAENATCLDMKIGPHTVILSVLPIHHAYCLSMDILKGISLGSVICINDSIMRMAKNIQLFTPDMILMVPLMIETFARKLEEVRAAGLPAEPVRKKMFGERLHTICSGGAYLNPDYVDLFAEFGITILQGYGMTECSPVISTNLSWDIRKNSVGKLMPNCEAKTVDGELFVRGTSVMQGYYKMPKETEETLSDGWLHTGDLGYVDEDGYIYLTGRRKNLIITKNGENVSPEELENALSVNHLIKEIIVRESEGVIEAEIFPDREYAQNTGIADIRSALQALIDEYNVNAPAYKRIYSIKVRESEFEKTASRKIKRS
LC-MS/MS detection of fatty acid thiotemplated T protein fragment after reaction with the A protein, Sfp and lauric acid [1]: This was further confirmed by the detection of fatty acid thiotemplated T protein fragment using LC-MS/MS (FIG. 22) | PPi level from ATP consumption (A and T proteins relative to negative control) [1]: Up to 30-fold increase in PPi level relative to negative control was observed with fatty acid substrates | adenylation activity after swapping the T protein between the C. eutactus and E. rectale pathways [2]: While the C protein lost activity, the A protein retained activity after swapping the T protein
